# From article PMC12875140 (Nature microbiology, 2026)
# T1: 6×-His-SUMO-Avs8A (E. coli ECOR07, UniProt B7LDL1 1-1283)
# T1 sequence (looked up): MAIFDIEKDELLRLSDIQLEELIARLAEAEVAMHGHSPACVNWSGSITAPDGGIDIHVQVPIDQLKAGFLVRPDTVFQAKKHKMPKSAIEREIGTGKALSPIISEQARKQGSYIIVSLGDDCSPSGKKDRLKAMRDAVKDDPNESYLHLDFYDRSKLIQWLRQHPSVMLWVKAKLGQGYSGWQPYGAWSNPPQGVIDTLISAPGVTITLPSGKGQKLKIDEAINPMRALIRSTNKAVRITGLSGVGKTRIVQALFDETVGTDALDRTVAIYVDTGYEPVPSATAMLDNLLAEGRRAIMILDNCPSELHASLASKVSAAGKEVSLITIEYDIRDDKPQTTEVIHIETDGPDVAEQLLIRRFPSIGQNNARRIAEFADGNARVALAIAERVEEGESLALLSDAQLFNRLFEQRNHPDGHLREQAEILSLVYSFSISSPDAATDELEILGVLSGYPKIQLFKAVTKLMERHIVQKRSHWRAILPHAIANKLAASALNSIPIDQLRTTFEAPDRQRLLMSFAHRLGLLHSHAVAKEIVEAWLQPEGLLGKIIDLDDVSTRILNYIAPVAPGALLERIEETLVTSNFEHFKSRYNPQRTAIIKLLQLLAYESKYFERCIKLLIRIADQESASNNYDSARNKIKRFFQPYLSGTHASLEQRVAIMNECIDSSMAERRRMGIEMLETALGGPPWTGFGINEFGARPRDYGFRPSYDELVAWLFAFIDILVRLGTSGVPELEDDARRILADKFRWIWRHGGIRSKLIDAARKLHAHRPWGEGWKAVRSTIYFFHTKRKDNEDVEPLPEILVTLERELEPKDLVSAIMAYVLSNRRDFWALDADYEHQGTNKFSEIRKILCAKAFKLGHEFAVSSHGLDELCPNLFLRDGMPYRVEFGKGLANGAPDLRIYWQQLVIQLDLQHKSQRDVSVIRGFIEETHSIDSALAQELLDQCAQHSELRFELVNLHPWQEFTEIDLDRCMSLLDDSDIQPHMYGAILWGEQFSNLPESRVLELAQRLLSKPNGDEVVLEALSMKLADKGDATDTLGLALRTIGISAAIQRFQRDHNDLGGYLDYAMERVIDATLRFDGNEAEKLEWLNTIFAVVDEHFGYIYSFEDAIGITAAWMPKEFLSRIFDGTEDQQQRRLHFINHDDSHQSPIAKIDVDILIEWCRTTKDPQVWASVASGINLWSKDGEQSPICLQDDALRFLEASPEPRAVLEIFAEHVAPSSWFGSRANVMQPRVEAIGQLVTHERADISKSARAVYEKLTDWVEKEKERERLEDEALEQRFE
# B1: λ gpE major capsid protein (natural protein, phage λ, UniProt P03713 1-341, looked up)
# chain: MSMYTTAQLLAANEQKFKFDPLFLRLFFRESYPFTTEKVYLSQIPGLVNMALYVSPIVSGEVIRSRGGSTSEFTPGYVKPKHEVNPQMTLRRLPDEDPQNLADPAYRRRRIIMQNMRDEELAIAQVEEMQAVSAVLKGKYTMTGEAFDPVEVDMGRSEENNITQSGGTEWSKRDKSTYDPTDDIEAYALNASGVVNIIVFDPKGWALFRSFKAVKEKLDTRRGSNSELETAVKDLGKAVSYKGMYGDVAIVVYSGQYVENGVKKNFLPDNTMVLGNTQARGLRTYGCIQDADAQREGINASARYPKNWVTTGDPAREFTMIQSAPLMLLADPDEFVSVQLA
# Legend:
# [1] = target: 6×-His-SUMO-Avs8A (E. coli ECOR07) (UniProt B7LDL1); assay: MST
# [2] = target: 6×-His-SUMO-Avs8A (E. coli ECOR07) (UniProt B7LDL1); assay: mass photometry; conditions: scale: Bas21 mcp monomers per four Avs8 monomers
# 6×-His-SUMO-Avs8A = target: T1, 6×-His-SUMO-Avs8A; assay: MST
Molecule,Kd [1] [nM],stoichiometry N [2],Kd (6×-His-SUMO-Avs8A) [nM]
Bas21 major capsid protein (natural protein),12,2,
B1,,,124
